{"source": "patent US20110282030A1", "about": "(MAYO FOUNDATION FOR MEDICAL EDUCATION AND RESEARCH, published 2011)", "key": {"human NPR-B": {"target": "T1, human NPR-B (human, UniProt P20594 23-1047)", "T1 sequence": "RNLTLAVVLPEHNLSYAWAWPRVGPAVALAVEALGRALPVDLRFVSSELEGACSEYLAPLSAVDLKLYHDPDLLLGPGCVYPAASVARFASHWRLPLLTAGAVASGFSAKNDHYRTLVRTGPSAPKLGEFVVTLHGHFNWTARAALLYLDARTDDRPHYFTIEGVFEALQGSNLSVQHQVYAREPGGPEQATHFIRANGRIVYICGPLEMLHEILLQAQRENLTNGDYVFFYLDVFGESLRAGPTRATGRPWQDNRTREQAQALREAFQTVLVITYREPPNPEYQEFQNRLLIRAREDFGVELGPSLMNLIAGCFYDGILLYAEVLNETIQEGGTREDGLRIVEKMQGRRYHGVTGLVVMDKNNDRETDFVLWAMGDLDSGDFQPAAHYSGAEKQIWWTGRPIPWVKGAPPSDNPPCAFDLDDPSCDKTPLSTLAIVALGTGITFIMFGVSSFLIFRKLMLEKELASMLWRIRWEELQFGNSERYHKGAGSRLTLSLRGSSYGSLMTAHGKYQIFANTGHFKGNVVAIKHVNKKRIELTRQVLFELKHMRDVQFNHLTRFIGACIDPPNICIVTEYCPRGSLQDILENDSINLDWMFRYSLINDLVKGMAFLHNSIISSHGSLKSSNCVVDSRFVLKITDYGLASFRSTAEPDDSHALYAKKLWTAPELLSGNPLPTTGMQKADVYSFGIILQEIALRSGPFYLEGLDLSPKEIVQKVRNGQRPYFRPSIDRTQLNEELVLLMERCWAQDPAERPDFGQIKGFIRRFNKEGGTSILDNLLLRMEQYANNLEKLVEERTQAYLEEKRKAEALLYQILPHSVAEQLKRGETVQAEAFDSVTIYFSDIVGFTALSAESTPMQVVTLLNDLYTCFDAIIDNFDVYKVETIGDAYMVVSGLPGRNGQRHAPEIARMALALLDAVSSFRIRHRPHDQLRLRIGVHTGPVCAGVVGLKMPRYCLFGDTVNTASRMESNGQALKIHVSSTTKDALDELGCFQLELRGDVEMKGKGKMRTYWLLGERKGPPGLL", "test": "cell-based or functional assay"}, "human NPR-A [1]": {"target": "T2, human NPR-A (human, UniProt P16066 33-1061)", "T2 construct": "whole, on cells; also called hNPR-A; hNPRA", "T2 sequence": "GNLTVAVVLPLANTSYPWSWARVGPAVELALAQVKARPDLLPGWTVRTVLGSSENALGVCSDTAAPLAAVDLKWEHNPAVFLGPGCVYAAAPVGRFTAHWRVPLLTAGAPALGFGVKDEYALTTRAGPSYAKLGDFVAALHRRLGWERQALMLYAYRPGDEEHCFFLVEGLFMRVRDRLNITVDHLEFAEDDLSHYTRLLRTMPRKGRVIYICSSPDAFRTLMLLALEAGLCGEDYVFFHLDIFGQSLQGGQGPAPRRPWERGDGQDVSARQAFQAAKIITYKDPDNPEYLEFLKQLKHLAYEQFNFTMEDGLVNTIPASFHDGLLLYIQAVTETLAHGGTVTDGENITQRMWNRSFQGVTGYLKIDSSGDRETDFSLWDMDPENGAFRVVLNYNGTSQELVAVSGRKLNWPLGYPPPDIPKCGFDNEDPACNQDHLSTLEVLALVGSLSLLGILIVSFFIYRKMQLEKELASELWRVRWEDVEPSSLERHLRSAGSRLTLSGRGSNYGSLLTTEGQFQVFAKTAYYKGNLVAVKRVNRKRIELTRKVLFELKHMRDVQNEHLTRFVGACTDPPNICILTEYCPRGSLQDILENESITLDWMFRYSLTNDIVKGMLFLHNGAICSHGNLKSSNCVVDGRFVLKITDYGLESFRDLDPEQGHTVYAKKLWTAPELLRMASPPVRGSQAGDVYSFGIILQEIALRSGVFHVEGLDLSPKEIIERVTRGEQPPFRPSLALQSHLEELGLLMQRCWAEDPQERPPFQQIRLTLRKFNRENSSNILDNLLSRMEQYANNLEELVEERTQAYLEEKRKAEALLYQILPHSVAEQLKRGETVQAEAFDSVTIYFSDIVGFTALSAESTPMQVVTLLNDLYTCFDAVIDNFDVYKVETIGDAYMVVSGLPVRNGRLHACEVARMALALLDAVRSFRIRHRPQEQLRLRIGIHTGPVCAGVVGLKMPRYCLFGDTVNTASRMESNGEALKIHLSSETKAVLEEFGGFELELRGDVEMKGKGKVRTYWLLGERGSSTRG", "test": "competition ^125I-ANP binding on whole 293 cells expressing hNPR-A"}, "human NPR-C": {"target": "T3, human NPR-C (human, UniProt P17342 27-541)", "T3 construct": "whole, on cells; also called clearance receptor", "T3 sequence": "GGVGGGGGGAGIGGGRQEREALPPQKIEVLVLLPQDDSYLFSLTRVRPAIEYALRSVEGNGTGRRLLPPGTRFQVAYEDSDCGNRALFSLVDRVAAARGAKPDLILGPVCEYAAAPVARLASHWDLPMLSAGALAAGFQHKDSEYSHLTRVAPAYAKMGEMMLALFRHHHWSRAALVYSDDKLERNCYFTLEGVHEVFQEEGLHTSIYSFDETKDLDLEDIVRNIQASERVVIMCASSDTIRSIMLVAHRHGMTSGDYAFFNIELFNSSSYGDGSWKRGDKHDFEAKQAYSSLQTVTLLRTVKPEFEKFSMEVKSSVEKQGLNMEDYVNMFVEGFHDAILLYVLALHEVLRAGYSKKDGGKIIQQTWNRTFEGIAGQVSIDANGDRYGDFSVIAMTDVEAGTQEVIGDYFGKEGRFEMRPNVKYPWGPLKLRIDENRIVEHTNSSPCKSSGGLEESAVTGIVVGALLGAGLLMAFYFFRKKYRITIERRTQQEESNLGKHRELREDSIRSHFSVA", "test": "displacement of ^125I-ANP from NPR-C"}, "human NPR-A [2]": {"target": "T2, human NPR-A", "test": "not told; no binding experiment of DNP on NPR-A is described"}}, "note": "Where no end group is shown, it is not given here."}
{"binder": "GLSKGCFGLKLDRIGSMSGLGC (ligand)", "note": "[Human CNP]", "values": [{"measurement": "EC50, cellular cGMP elevation in 293 cells expressing hNPR-B", "setting": "human NPR-B", "value": 38, "unit": "nM"}, {"measurement": "binding result", "setting": "human NPR-A [1]", "value": "no binding (tested: 10 µM)"}, {"measurement": "binding result", "setting": "human NPR-C", "value": "binds"}]}
{"binder": "SLRRSSCFGGRMDRIGAQSGLGCNSFRY (ligand)", "note": "[Human ANP]", "values": [{"measurement": "binding result", "setting": "human NPR-C", "value": "binds"}]}
{"binder": "EVKYDPCFGHKIDRINHVSNLGCPSLRDPRPNAPSTSA (ligand, ends and bridges not checked; cysteine pairing not given here, also called snake DNP polypeptide)", "note": "[DNP]", "values": [{"measurement": "binding result", "setting": "human NPR-A [2]", "value": "binds"}]}
